Source: the supplement of paper PMC9732359
± gives the uncertainty stated by the source.

assay: protein stability index of a GFP-peptide fusion (yeast GPS) (PSI 1-4); higher = more stable; sorted into four equal gates, so the index is relative within each strain; details: pdr5∆
Summary of the method: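 The protein stability index of a peptide was calculated by multiplying its read frequency in each gate by that gate's number and adding the products. The peptides were tiled 17-residue stretches of yeast proteins, fused downstream of GFP on a Cherry-expressing plasmid and carried in yeast as a pooled library. Mid-log cultures in leucine-free medium were sorted into four equal gates by GFP/Cherry ratio, and each gate's plasmids were PCR-amplified and Illumina-sequenced.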

| Sequence | protein stability index |
| --- | --- |
| NGDNSTTTNTDQNNATM [SNF12] | 2.2 ± 0.069 |
| NGFAPISEVMEDRNQRI [FAS1] | 3.3 ± 0.06 |
| NGGVGVDVELITSINVE [FAS2] | 3.18 ± 0.056 |
| NGKLTSANERLFGNRPS [YML031W/NDC1] | 3.03 ± 0.076 |
| NGLAIRRAAYGVVRYVM [RPS3] | 1.91 ± 0.064 |
| NGNLEEEFAYVDPARRQ [MED6] | 3.44 ± 0.12 |
| NGNTSSKTVVTLSEPVQ [FAS1] | 3.14 ± 0.066 |
| NGRLNKCGVISPRFNVK [RPS22A] | 2.85 ± 0.23 |
| NGSSDASSLRFGNSLSN [YDL088C/ASM4] | 2.76 ± 0.075 |
| NGTISKTGKKNKVAKKN [SRP14] | 3.45 ± 0.19 |
| NGVRALFHSCTRIQYVD [GRR1] | 2.31 ± 0.055 |
| NGWEKYLHNVELGEKKN [ISW2] | 1.8 ± 0.14 |
| NHNQFECKGCDNKIDIY [RPB2] | 3.19 ± 0.047 |
| NHSLQHQNESSAASIPP [RPN4] | 3 ± 0.058 |
| NIDSSAQFTFGKAATAK [YOR098C/NUP1] | 3.07 ± 0.14 |
| NIEEMARVILYLKNVLF [SIN4] | 2.31 ± 0.079 |
| NIFSEAVKNKYNVGKQL [PRP28] | 2.43 ± 0.11 |
| NIKIDAKPALFERFINA [MCD1] | 2.8 ± 0.095 |
| NIKTIAETLAEELINAA [RPS5] | 2.87 ± 0.073 |
| NIKTSEWDLYPQGFSSV [REC8] | 2.82 ± 0.2 |
| NILPFLWGPHGLNSDAE [ECM29] | 2.71 ± 0.16 |
| NIRGNTIRQIILPDSLN [SMD1] | 2.94 ± 0.12 |
| NKDMIKNLVKVLESRVN [CSN12] | 2.63 ± 0.15 |
| NKINSRNSWNFALIDYF [BRN1] | 1.27 ± 0.075 |
| NKLSGILADEMGLGKTL [ISW2] | 3.23 ± 0.13 |
| NKTDAQAPTTGFSFGSQ [YJL041W/NSP1] | 2.98 ± 0.06 |

| Sequence | protein stability index |
| --- | --- |
| NKVGSTGSLMGGNSTQN [YGR119C/NUP57] | 3.38 ± 0.098 |
| NKVHETSSKSSSLSAII [YDL088C/ASM4] | 2.83 ± 0.053 |
| NKVQIMIATNVAARGLD [PRP28] | 1.5 ± 0.078 |
| NKVSNTVSPTQDKDAIR [SIR2] | 3.26 ± 0.07 |
| NLDAAAAGTSQARTATL [RPC10] | 3.15 ± 0.15 |
| NLDYLFELIELVTPKSF [NUT1] | 3 ± 0.082 |
| NLFPLKPKMLPIPSKPT [SRP68] | 2.55 ± 0.093 |
| NLKGRPYTGWVDSKTKE [FAS2] | 2.95 ± 0.047 |
| NLLHSYMEKGTQLDDLQ [YML103C/NUP188] | 2.49 ± 0.053 |
| NLLKDEGVTPGRIRTTR [SSN3] | 2.87 ± 0.23 |
| NLNDAGLALQLFKKLKE [RPN2] | 2.69 ± 0.23 |
| NLPEEERKQIHEFKLIV [GRR1] | 3.35 ± 0.24 |
| NLPEHIVPGTYIQERNP [RPS10A] | 2.62 ± 0.068 |
| NLQPISTPENVPRLFDL [SMC4] | 2.93 ± 0.084 |
| NLRLLNSIDSTSRIELE [ECM29] | 3.08 ± 0.077 |
| NLRLLVEENRVRYTTSV [DLS1] | 2.65 ± 0.056 |
| NLSAFKIVYIAPLKALV [BRR2] | 1.54 ± 0.051 |
| NLSRYPKSGIDIFVYLT [MTR3] | 1.97 ± 0.052 |
| NLYHVTEDGWIYHGNHD [PRE2] | 2.97 ± 0.23 |
| NMLPQRQSSVGSLNATN [SNF2] | 3.3 ± 0.073 |
| NMMDAISFVLGVRSNHL [SMC1] | 2.58 ± 0.079 |
| NNEMKSLQRSKSSFVKE [SMC1] | 3.25 ± 0.13 |
| NNHNMRNNSNNKTSNNN [SWI1] | 2.55 ± 0.068 |
| NNIKNGTNNISQHGQGN [YDL088C/ASM4] | 2.87 ± 0.033 |
| NNKKVVGTAIDSILNYA [ECM29] | 2.75 ± 0.12 |
| NNKNKRVTGAGGQQRRM [RPC53] | 2.78 ± 0.2 |

| Sequence | protein stability index |
| --- | --- |
| NNNNNNNNSNNIMSASG [YGL172W/NUP49] | 2.48 ± 0.038 |
| NNPLVQKKNFLFKPLNK [ARP7] | 2.51 ± 0.14 |
| NNRMGSYDCTGVNELAP [POP1] | 2.42 ± 0.076 |
| NNRSVSMQTIAETIILS [SRB5] | 1.91 ± 0.068 |
| NNRWAENNYKKRLLGTA [RPS23A] | 2.78 ± 0.16 |
| NNSALSNVNSDIYFKLK [RPT3] | 2.96 ± 0.12 |
| NNSNNNNIIRIQQLISQ [SNF11] | 2.39 ± 0.075 |
| NNTEKNDVTNKNINIGK [SIR4] | 2.21 ± 0.052 |
| NNTNNNNTNTGASGVDD [SWI1] | 2.95 ± 0.065 |
| NNWFSLPGDMLAVCDEL [SIN4] | 2.21 ± 0.079 |
| NPFEDDMDGVDFNQAFE [BRN1] | 3.21 ± 0.064 |
| NPHQKDQLIISSSANKL [YML103C/NUP188] | 2.71 ± 0.094 |
| NPIIENNVDNKYKSGGK [SSN2] | 3.01 ± 0.041 |
| NPKYDTSNASMNTTLGS [YAR002W/NUP60] | 3.15 ± 0.044 |
| NPLAKTMADAVRELGIL [SEC65] | 2.3 ± 0.06 |
| NPMKKHKPNEGRTPNIS [SIR4] | 2.86 ± 0.055 |
| NPPYSQCIVYPNCLFIL [SOH1] | 2.06 ± 0.044 |
| NPVTLNEDSKAFHTAVL [NUT1] | 2.96 ± 0.076 |
| NQDSVKTYALESINNVV [RPN2] | 3.21 ± 0.1 |
| NQLEDFILELEHKTPEL [YIL149C/MLP2] | 3.28 ± 0.16 |
| NQSFIQQKANLLSSSNF [COR1] | 1.91 ± 0.069 |
| NQTNINSLAVRGKDCTV [SCL1] | 3.26 ± 0.088 |
| NQVMMDRKIQGWLGALT [ARP7] | 3.18 ± 0.052 |
| NRERFISKLFLRGDSVI [SMD2] | 1.65 ± 0.089 |
| NRGNKKRHRSSYYDNDL [YML031W/NDC1] | 3.29 ± 0.095 |
| NRKVLQALEKIGIVEIS [RPS19A] | 2.27 ± 0.1 |

| Sequence | protein stability index |
| --- | --- |
| NRKVRAGRGFTLAEVKA [RPL13A] | 2.97 ± 0.061 |
| NRMQISPDQMRNLQMGL [GRR1] | 3.18 ± 0.12 |
| NRQAAASVVPSASSLVI [RPL12A] | 2.17 ± 0.038 |
| NRRGMLALSGTSASNTS [SNF5] | 3.1 ± 0.064 |
| NRRKQSFVLNKNTIDFE [RPN4] | 1.74 ± 0.045 |
| NRTKSTTIKNIDILNRT [SMC4] | 2.55 ± 0.043 |
| NRTMDGKPVSLPLLYNF [FAS1] | 3.31 ± 0.1 |
| NRTVLLKIFKIFCIDLE [SRB8] | 2.15 ± 0.089 |
| NSADAAYAQVEIQPRAN [FAS2] | 2.76 ± 0.065 |
| NSASNNGNLTSNQLISN [SWI1] | 2.14 ± 0.078 |
| NSDIANLRTQVTQQKRS [SMC1] | 3.1 ± 0.055 |
| NSESDSKSDSDSEERDP [ITC1] | 2.99 ± 0.2 |
| NSFIKANLPWLGKAQNW [RPN2] | 2.6 ± 0.13 |
| NSKDHKKITLQLLDTSN [SIN4] | 3.39 ± 0.078 |
| NSLFYLKWSACTSLMDI [IRR1] | 2.31 ± 0.047 |
| NSLLSNFNDIPPSVTLQ [YDL088C/ASM4] | 1.98 ± 0.072 |
| NSLLTIVWRFISENTFP [RPC34] | 2.05 ± 0.042 |
| NSMDISMFSGLDSTGFD [MED2] | 3.06 ± 0.055 |
| NSNSNQQSTDADEDDED [RPT1] | 2.34 ± 0.093 |
| NSNSNSGSLFGSNNAQT [YGL172W/NUP49] | 3.24 ± 0.085 |
| NSPTSFFDGSASSTPIP [YOR098C/NUP1] | 2.8 ± 0.049 |
| NSSEIQSAIRPAGQATQ [RPL4A] | 2.85 ± 0.094 |
| NSSSMEEVMRIALMGQD [ESC2] | 2.67 ± 0.075 |
